US20170121425A1 (ACADEMIA SINICA, published 2017)

Assays:
[1] = biological target: Fc region of human IgE (ε.Fc 2-4), Ser226 to Gly599, N265Q and N371Q (human) (UniProt P01854); assay: ELISA, ε.Fc 2-4 coated, antibody titrated
[2] = biological target: Fc region of human IgE (ε.Fc 2-4), Ser226 to Gly599, N265Q and N371Q (human) (UniProt P01854); assay: ELISA, ε.Fc 2-4 coated on the plate, antibody titrated, OD450
[3] = biological target: Fc region of human IgE (ε.Fc 2-4), Ser226 to Gly599, N265Q and N371Q (human) (UniProt P01854); assay: competitive ELISA on coated ε.Fc 2-4; competitor HRP-conjugated c8D6
[4] = biological target: T1, mIgE.FcS (CH2-cytoplasmic tail of the short form of human membrane ε chain) on Ramos cells (human, UniProt P01854-3 104-494, limits assumed); assay: flow cytometry on mIgE.FcS-expressing Ramos cells; c8D6, not hu8D6
T1 construct: domain: CH2-cytoplasmic tail of the short form of membrane ε chain; also called mIgE.FcS Ramos
T1 sequence (P01854 other isoform, or with tags, fused parts or gaps limits assumed): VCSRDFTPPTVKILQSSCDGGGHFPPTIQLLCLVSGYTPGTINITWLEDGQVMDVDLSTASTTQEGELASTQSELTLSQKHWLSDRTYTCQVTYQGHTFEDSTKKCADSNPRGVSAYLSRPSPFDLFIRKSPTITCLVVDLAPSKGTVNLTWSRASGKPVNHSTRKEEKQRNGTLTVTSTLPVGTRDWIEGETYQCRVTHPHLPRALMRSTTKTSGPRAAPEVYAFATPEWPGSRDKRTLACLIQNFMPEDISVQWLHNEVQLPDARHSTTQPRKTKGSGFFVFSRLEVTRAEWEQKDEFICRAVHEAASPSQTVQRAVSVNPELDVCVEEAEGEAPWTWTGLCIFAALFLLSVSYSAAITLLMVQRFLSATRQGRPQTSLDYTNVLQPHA
Protocol: (§1) Ramos cells expressing mIgE.FcL or mIgE.FcS were resuspended in FACS buffer (1% FBS and 0.1% sodium azide in 1×PBS) at a cell density of 2×10⁶ cells/mL. […] Bound antibodies were detected by FITC-labeled goat IgG specific for human IgG-Fc (Caltag Laboratories). The stained cells were analyzed on a FACS Canto II flow cytometer (BD Biosciences). The geometric means of fluorescence intensity for the binding of antibodies to Ramos cell lines were analyzed using the FCSExpress software (DeNono software). The EC₅₀ was calculated using the Prism software.

[5] = biological target: T2, mIgE.FcL (CH2-cytoplasmic tail of the long form of human membrane ε chain) on Ramos cells (human, UniProt P01854 104-546, limits assumed); assay: flow cytometry on mIgE.FcL-expressing Ramos cells, FITC anti-human IgG-Fc detection, geometric mean intensity
T2 construct: domain: CH2-cytoplasmic tail of the long form of membrane ε chain; also called mIgE.FcL Ramos
T2 sequence (P01854 104-546 limits assumed, form in doubt): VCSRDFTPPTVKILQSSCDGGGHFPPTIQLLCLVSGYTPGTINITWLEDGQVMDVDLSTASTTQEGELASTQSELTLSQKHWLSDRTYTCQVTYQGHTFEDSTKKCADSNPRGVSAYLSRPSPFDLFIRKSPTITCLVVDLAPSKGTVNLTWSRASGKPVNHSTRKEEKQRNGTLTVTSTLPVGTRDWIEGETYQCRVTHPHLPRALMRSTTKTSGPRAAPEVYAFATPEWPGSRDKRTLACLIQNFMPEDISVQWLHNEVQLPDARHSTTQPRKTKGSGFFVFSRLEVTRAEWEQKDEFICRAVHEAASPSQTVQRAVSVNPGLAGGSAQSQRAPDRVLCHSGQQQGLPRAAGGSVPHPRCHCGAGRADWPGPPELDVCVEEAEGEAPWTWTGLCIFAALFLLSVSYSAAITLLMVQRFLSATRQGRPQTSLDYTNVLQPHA
Protocol: as §1

[6] = biological target: T1, mIgE.FcS (CH2-cytoplasmic tail of the …); assay: flow cytometry on mIgE.FcS-expressing Ramos cells, FITC anti-human IgG-Fc detection, geometric mean intensity
Protocol: as §1

[7] = biological target: Fc region of human IgE (ε.Fc 2-4), Ser226 to Gly599, N265Q and N371Q (human) (UniProt P01854); assay: competition ELISA on coated ε.Fc 2-4; competitor HRP-conjugated c8D6 at fixed dilution, unconjugated antibody titrated

Sequence of Fc region of human IgE (ε.Fc 2-4), Ser226 to Gly599, N265Q and N371Q (human) (P01854 106-427, stated change not applied): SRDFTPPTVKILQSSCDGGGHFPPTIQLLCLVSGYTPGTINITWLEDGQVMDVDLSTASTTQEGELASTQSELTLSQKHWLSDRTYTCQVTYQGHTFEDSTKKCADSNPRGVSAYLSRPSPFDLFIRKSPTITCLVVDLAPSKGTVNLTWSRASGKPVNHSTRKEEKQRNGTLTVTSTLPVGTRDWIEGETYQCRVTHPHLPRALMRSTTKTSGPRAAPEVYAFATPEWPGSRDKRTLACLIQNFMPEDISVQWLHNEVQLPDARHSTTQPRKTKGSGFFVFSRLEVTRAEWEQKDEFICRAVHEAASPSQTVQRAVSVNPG

B1: chimeric 8D6 antibody (antibody, V domains shown)
VH: QVQLQQSGAELAKPGASVMLSCKASGYTFNGYWMHWVKQRPGQDLEWIGYINPTTGHTEYNQKFKDKATLTADESSNTAYIELSSLTSDDSAVYYCARQEYRHSWFAYWGQGTLVTVSA
VL: DIVLTQSPASLAVSLGQRATISCKASQSVDYDGDTYMNWYHQKPGQPPKLLIYAASNLDSGIPARFSGSGSGTDFTLNIHPVEEEDAATYYCQQTNEDPWTFGGGTKLEIK
notes: c8D6 is the chimeric form of 8D6 with human constant regions (detected with anti-human IgG-Fc); also called parent c8D6 antibody; HRP-conjugated c8D6
B1 was tested, and the EC50 [1] was 0.116 nM, the EC50 (read off the curve) [2] was 0.02 µg/mL and the IC50 [3] was 2.28 nM. For the same binder, the EC50 [4] was 0.3 nM, the “EC50 (read off the curve)” value [5] was roughly 0.03 µg/mL and the “EC50 (read off the curve)” value [6] was roughly 0.04 µg/mL. It also gave an IC50 (read off the curve) [7] of 0.4 µg/mL.
